Data from publication PMC5376635, “NDR1-Dependent Regulation of Kindlin-3 Controls High-Affinity LFA-1 Binding and Immune Synapse Organization” (Molecular and Cellular Biology, 2017).

How the values were obtained:
LFA-1 [1] = biological target: T1, LFA-1 (mouse (endogenous in OT-II T cells), UniProt P24063 24-1162; P11835 24-771); test: single-molecule tracking by TIRF microscopy on supported lipid bilayers; as a1 but with 1 mM Mn^2+ and in the absence of pMHC, similar ICAM-1 density; conditions: one partner purified
T1 construct: integrin αL subunit of LFA-1, mouse; integrin β2 subunit of LFA-1, mouse; also called αL/β2 integrin; source: endogenous, on naive OT-II T cells and OT-II T cell blasts (mouse)

LFA-1 [2] = biological target: T1, LFA-1; test: single-molecule tracking by TIRF microscopy on supported lipid bilayers; ATTO-647N-labeled ICAM-1-GPI (300 molecules/μm^2) and I-A^b-OVA peptide (200 molecules/μm^2) in supported planar lipid bilayers; naive OT-II T cells or OT-II T cell blasts (also Rap1b KO, Mst1/2 DKO, kindlin-3 or NDR1 knock-down cells) on top; 30 frames/s for 200 s; arrests of 0.5 to 200 s counted as binding; koff from a single exponential fit …; conditions: one partner purified

T1 sequence (P24063 24-1162, chain 1 of 2): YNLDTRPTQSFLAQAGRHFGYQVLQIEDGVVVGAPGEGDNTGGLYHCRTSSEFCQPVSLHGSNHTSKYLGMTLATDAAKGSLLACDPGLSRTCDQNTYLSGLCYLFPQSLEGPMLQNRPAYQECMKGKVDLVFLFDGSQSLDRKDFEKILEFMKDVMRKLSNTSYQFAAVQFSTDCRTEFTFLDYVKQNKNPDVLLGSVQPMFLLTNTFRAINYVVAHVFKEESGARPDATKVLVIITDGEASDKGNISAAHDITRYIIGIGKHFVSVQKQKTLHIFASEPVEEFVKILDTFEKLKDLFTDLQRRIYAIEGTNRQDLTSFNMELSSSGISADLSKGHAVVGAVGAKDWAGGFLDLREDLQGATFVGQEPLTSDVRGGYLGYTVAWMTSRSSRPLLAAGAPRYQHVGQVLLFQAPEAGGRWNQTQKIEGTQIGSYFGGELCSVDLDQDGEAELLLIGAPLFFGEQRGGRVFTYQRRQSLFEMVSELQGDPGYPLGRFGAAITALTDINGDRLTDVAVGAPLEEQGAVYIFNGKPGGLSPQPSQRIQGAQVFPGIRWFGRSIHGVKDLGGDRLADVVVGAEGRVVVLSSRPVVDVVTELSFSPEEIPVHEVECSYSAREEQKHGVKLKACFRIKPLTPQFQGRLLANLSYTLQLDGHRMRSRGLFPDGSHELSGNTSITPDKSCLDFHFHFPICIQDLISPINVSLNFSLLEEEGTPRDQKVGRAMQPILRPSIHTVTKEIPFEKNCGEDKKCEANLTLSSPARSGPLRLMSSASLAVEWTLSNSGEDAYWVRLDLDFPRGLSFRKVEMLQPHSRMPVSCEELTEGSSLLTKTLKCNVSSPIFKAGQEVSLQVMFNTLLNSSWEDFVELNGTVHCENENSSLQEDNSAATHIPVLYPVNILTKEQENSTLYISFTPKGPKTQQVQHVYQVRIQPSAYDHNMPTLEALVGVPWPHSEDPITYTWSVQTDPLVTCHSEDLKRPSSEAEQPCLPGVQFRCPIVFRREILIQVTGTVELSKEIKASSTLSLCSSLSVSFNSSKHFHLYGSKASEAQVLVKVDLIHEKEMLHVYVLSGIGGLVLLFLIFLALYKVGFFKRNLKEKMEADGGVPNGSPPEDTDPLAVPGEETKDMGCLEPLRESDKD
T1 sequence (P11835 24-771, chain 2 of 2): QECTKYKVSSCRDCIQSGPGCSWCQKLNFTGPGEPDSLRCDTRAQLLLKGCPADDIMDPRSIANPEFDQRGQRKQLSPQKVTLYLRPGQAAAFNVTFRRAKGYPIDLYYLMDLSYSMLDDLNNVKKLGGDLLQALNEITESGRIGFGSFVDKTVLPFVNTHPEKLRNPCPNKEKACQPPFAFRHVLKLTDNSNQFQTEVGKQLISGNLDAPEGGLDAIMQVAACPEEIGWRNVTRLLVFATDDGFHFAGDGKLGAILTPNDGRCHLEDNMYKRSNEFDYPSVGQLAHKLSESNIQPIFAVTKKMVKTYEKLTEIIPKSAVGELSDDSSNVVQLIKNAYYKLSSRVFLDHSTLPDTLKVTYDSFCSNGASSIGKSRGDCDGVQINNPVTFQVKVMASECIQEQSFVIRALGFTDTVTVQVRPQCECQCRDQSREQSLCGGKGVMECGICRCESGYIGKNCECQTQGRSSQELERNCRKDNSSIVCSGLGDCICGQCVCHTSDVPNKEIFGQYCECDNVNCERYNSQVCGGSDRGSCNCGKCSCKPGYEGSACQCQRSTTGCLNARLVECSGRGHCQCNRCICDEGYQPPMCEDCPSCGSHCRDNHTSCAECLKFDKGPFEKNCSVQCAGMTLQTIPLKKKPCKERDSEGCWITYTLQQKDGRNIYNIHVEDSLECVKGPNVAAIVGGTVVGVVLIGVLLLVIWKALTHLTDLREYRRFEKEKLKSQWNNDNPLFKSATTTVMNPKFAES

fold increase of binding durations longer than 10 s with Mn^2+ (LFA-1 [1]): 2 fold | koff (LFA-1 [2]): 0.032 s⁻¹
B1: Mouse ICAM-1-GPI (ligand)
chain: QVSIHPREAFLPQGGSVQVNCSSSCKEDLSLGLETQWLKDELESGPNWKLFELSEIGEDSSPLCFENCGTVQSSASATITVYSFPESVELRPLPAWQQVGKDLTLRCHVDGGAPRTQLSAVLLRGEEILSRQPVGGHPKDPKEITFTVLASRGDHGANFSCRTELDLRPQGLALFSNVSEARSLRTFDLPATIPKLDTPDLLEVGTQQKLFCSLEGLFPASEARIYLELGGQMPTQESTNSSDSVSATALVEVTEEFDRTLPLRCVLELADQILETQRTLTVYNFSAPVLTLSQLEVSEGSQVTVKCEAHSGSKVVLLSGVEPRPPTPQVQFTLNASSEDHKRSFFCSAALEVAGKFLFKNQTLELHVLYGPRLDETDCLGNWTWQEGSQQTLKCQAWGNPSPKMTCRRKADGALLPIGVVKSVKQEMNGTYVCHAFSSHGNVTRNVYLTVLYHSQNN
modifications: GPI anchor; labeled with ATTO-647N-NHS-ester
